Test system: Escherichia coli TOP10
Experiment: shrunken log2 fold change of peptide-encoding DNA abundance (4.5 h post-induction vs induction); higher = less antimicrobial activity (less host growth inhibition)
Conditions: time post-induction: 4.5 h; library: site-saturation at positions 5, 18, 19, 20
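Note: peptides expressed intracellularly from a pBAD plasmid library in pooled LB shake-flask culture, induced with 0.3% L-arabinose, DNA abundance read by NGS, three biological replicates, DESeq2 with apeglm shrinkage.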

## RRIRDRPPRLPRPRPRPLREPRP
  shrunken log2 fold change: 0.714

## RRIRYRPPRLPRPRPRPVHGPRP
  shrunken log2 fold change: -0.014

## RRIRCRPPRLPRPRPRPVYNPRP
  shrunken log2 fold change: -0.378

## RRIRDRPPRLPRPRPRPQTVPRP
  shrunken log2 fold change: 0.0628

## RRIRSRPPRLPRPRPRPRVHPRP
  shrunken log2 fold change: 0.109

## RRIRGRPPRLPRPRPRPNVPPRP
  shrunken log2 fold change: 0.0564

## RRIRLRPPRLPRPRPRPMYYPRP
  shrunken log2 fold change: -0.0423

## RRIRNRPPRLPRPRPRPQVSPRP
  shrunken log2 fold change: -0.434

## RRIRSRPPRLPRPRPRPDFDPRP
  shrunken log2 fold change: 0.0818

## RRIRERPPRLPRPRPRPPYYPRP
  shrunken log2 fold change: -0.433

## RRIRARPPRLPRPRPRPMQFPRP
  shrunken log2 fold change: 0.091

## RRIRPRPPRLPRPRPRPIKFPRP
  shrunken log2 fold change: -0.908

## RRIRERPPRLPRPRPRPLACPRP
  shrunken log2 fold change: -0.269

## RRIRYRPPRLPRPRPRPTCGPRP
  shrunken log2 fold change: 0.0163

## RRIRFRPPRLPRPRPRPDYKPRP
  shrunken log2 fold change: -0.492

## RRIRYRPPRLPRPRPRPFSYPRP
  shrunken log2 fold change: -0.145

## RRIRGRPPRLPRPRPRPNGFPRP
  shrunken log2 fold change: 0.0031

## RRIRWRPPRLPRPRPRPLVDPRP
  shrunken log2 fold change: 0.0816

## RRIRPRPPRLPRPRPRPNLHPRP
  shrunken log2 fold change: -0.203

## RRIRARPPRLPRPRPRPGNIPRP
  shrunken log2 fold change: -0.239

## RRIRKRPPRLPRPRPRPNFGPRP
  shrunken log2 fold change: 0.252

## RRIRVRPPRLPRPRPRPVAQPRP
  shrunken log2 fold change: 0.247

## RRIRFRPPRLPRPRPRPISNPRP
  shrunken log2 fold change: -0.48

## RRIRQRPPRLPRPRPRPSRCPRP
  shrunken log2 fold change: -0.177

## RRIRCRPPRLPRPRPRPCWDPRP
  shrunken log2 fold change: -0.294

## RRIRCRPPRLPRPRPRPVCYPRP
  shrunken log2 fold change: -0.269

## RRIRTRPPRLPRPRPRPMFHPRP
  shrunken log2 fold change: -0.52

## RRIRTRPPRLPRPRPRPIGRPRP
  shrunken log2 fold change: -0.159

## RRIRQRPPRLPRPRPRPHQKPRP
  shrunken log2 fold change: -0.0904

## RRIRERPPRLPRPRPRPGHKPRP
  shrunken log2 fold change: -0.324

## RRIRVRPPRLPRPRPRPMHSPRP
  shrunken log2 fold change: -0.179

## RRIRCRPPRLPRPRPRPRVDPRP
  shrunken log2 fold change: 0.113

## RRIRNRPPRLPRPRPRPWDWPRP
  shrunken log2 fold change: 0.0265

## RRIRKRPPRLPRPRPRPLMGPRP
  shrunken log2 fold change: 0.818

## RRIRVRPPRLPRPRPRPLSIPRP
  shrunken log2 fold change: -0.233

## RRIRMRPPRLPRPRPRPIADPRP
  shrunken log2 fold change: -0.00229

## RRIRPRPPRLPRPRPRPIKKPRP
  shrunken log2 fold change: -0.00206

## RRIRIRPPRLPRPRPRPVAKPRP
  shrunken log2 fold change: -0.0157

## RRIRMRPPRLPRPRPRPFSPPRP
  shrunken log2 fold change: -0.189

## RRIRARPPRLPRPRPRPGSQPRP
  shrunken log2 fold change: 0.368

## RRIRKRPPRLPRPRPRPCTCPRP
  shrunken log2 fold change: 0.00906

## RRIRARPPRLPRPRPRPTPQPRP
  shrunken log2 fold change: 0.745

## RRIRFRPPRLPRPRPRPQHRPRP
  shrunken log2 fold change: -0.0907

## RRIRPRPPRLPRPRPRPEVDPRP
  shrunken log2 fold change: 0.155

## RRIRIRPPRLPRPRPRPGRWPRP
  shrunken log2 fold change: 0.473

## RRIRVRPPRLPRPRPRPDKFPRP
  shrunken log2 fold change: 0.0677

## RRIRFRPPRLPRPRPRPTYPPRP
  shrunken log2 fold change: -0.497

## RRIRIRPPRLPRPRPRPASCPRP
  shrunken log2 fold change: -0.1

## RRIRYRPPRLPRPRPRPEFVPRP
  shrunken log2 fold change: -0.327

## RRIRLRPPRLPRPRPRPSYSPRP
  shrunken log2 fold change: -0.589

## RRIRLRPPRLPRPRPRPYSAPRP
  shrunken log2 fold change: -0.693

## RRIRLRPPRLPRPRPRPDDGPRP
  shrunken log2 fold change: -0.00277

## RRIRDRPPRLPRPRPRPYDSPRP
  shrunken log2 fold change: -0.0305

## RRIRIRPPRLPRPRPRPPIFPRP
  shrunken log2 fold change: -0.0827

## RRIRLRPPRLPRPRPRPYHPPRP
  shrunken log2 fold change: -0.00992

## RRIRPRPPRLPRPRPRPYCPPRP
  shrunken log2 fold change: -0.365

## RRIRWRPPRLPRPRPRPYDGPRP
  shrunken log2 fold change: -0.337

## RRIRKRPPRLPRPRPRPKIDPRP
  shrunken log2 fold change: 0.545

## RRIRQRPPRLPRPRPRPWWKPRP
  shrunken log2 fold change: -0.00542

## RRIRWRPPRLPRPRPRPWASPRP
  shrunken log2 fold change: 0.014

## RRIRYRPPRLPRPRPRPIIRPRP
  shrunken log2 fold change: -0.2

## RRIRGRPPRLPRPRPRPSLRPRP
  shrunken log2 fold change: 0.57

## RRIRFRPPRLPRPRPRPSDVPRP
  shrunken log2 fold change: 0.0142

## RRIRQRPPRLPRPRPRPPSHPRP
  shrunken log2 fold change: 0.0871

## RRIRPRPPRLPRPRPRPKGNPRP
  shrunken log2 fold change: -0.097

## RRIRMRPPRLPRPRPRPQWIPRP
  shrunken log2 fold change: -0.00285

## RRIRFRPPRLPRPRPRPWRLPRP
  shrunken log2 fold change: -0.799

## RRIRYRPPRLPRPRPRPRAPPRP
  shrunken log2 fold change: 0.271

## RRIRFRPPRLPRPRPRPCHFPRP
  shrunken log2 fold change: -0.00959

## RRIRRRPPRLPRPRPRPQYKPRP
  shrunken log2 fold change: -0.401

## RRIRARPPRLPRPRPRPDQAPRP
  shrunken log2 fold change: 0.026

## RRIRWRPPRLPRPRPRPKYDPRP
  shrunken log2 fold change: -0.449

## RRIRCRPPRLPRPRPRPYASPRP
  shrunken log2 fold change: -0.0843

## RRIRCRPPRLPRPRPRPCGIPRP
  shrunken log2 fold change: 0.153

## RRIRQRPPRLPRPRPRPWSNPRP
  shrunken log2 fold change: -0.00145

## RRIRFRPPRLPRPRPRPTWQPRP
  shrunken log2 fold change: 0.145

## RRIRVRPPRLPRPRPRPRMVPRP
  shrunken log2 fold change: -0.0168

## RRIRYRPPRLPRPRPRPQGGPRP
  shrunken log2 fold change: 0.0299

## RRIRIRPPRLPRPRPRPPPNPRP
  shrunken log2 fold change: 0.776

## RRIRLRPPRLPRPRPRPGALPRP
  shrunken log2 fold change: 0.0546

## RRIRSRPPRLPRPRPRPGMHPRP
  shrunken log2 fold change: -0.0823

## RRIRTRPPRLPRPRPRPPNTPRP
  shrunken log2 fold change: 0.443

## RRIRRRPPRLPRPRPRPCFNPRP
  shrunken log2 fold change: -0.271

## RRIRARPPRLPRPRPRPWIVPRP
  shrunken log2 fold change: -0.0598

## RRIRLRPPRLPRPRPRPQYYPRP
  shrunken log2 fold change: -0.396

## RRIRIRPPRLPRPRPRPGWNPRP
  shrunken log2 fold change: -0.0913

## RRIRPRPPRLPRPRPRPDVIPRP
  shrunken log2 fold change: -0.0251

## RRIRIRPPRLPRPRPRPRNHPRP
  shrunken log2 fold change: -0.354

## RRIRHRPPRLPRPRPRPWWWPRP
  shrunken log2 fold change: 0.0221

## RRIRKRPPRLPRPRPRPCAKPRP
  shrunken log2 fold change: 0.54

## RRIRVRPPRLPRPRPRPVEMPRP
  shrunken log2 fold change: -0.0393

From the supplement of paper PMC9112550, “Optimization of the antimicrobial peptide Bac7 by deep mutational scanning” (BMC Biology, 2022)
